From publication PMC6769930, “Endoglin Protein Interactome Profiling Identifies TRIM21 and Galectin-3 as New Binding Partners” (Cells, 2019)

Columns and labels:
Assay in all cases: peptide or protein array; ProtoArray human protein Microarray v5.0 (over 9000 human proteins arrayed) probed with recombinant sEng in two replicates; detection with anti-endoglin mAb SN6h and HRP secondary antibody; hits with Z-score >=2.0 in both arrays
Conditions in all cases: both partners purified
[1] = target: T1, Cell cycle associated protein 1 (CAPRIN1), transcript variant 1 (human, UniProt Q14444-1 1-709)
T1 construct: human CAPRIN1, transcript variant 1; source: bought: ProtoArray human protein Microarray v5.0 (Life Technologies), individually purified and arrayed
T1 sequence (looked up): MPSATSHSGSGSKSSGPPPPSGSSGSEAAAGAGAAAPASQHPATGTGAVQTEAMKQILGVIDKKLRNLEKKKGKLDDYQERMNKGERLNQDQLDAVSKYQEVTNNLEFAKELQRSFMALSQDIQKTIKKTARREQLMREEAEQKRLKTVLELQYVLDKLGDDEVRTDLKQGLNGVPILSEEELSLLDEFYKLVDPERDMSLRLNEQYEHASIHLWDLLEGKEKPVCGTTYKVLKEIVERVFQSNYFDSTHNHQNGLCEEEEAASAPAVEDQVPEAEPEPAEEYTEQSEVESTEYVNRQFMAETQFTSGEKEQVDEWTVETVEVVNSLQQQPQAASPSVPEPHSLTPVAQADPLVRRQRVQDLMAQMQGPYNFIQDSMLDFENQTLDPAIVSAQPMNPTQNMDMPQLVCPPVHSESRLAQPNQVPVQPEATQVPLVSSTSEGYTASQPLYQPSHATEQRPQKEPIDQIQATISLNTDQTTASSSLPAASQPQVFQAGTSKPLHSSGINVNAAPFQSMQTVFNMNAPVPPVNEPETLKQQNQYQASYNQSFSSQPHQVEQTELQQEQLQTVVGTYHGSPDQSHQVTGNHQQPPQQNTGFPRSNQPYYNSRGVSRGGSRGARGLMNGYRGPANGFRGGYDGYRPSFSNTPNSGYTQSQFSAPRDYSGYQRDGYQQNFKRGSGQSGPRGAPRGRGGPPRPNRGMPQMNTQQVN

[2] = target: T2, YTH domain family, member 2 (YTHDF2) (human, UniProt Q9Y5A9 1-579)
T2 construct: human YTHDF2; source: bought: ProtoArray human protein Microarray v5.0 (Life Technologies), individually purified and arrayed
T2 sequence (looked up): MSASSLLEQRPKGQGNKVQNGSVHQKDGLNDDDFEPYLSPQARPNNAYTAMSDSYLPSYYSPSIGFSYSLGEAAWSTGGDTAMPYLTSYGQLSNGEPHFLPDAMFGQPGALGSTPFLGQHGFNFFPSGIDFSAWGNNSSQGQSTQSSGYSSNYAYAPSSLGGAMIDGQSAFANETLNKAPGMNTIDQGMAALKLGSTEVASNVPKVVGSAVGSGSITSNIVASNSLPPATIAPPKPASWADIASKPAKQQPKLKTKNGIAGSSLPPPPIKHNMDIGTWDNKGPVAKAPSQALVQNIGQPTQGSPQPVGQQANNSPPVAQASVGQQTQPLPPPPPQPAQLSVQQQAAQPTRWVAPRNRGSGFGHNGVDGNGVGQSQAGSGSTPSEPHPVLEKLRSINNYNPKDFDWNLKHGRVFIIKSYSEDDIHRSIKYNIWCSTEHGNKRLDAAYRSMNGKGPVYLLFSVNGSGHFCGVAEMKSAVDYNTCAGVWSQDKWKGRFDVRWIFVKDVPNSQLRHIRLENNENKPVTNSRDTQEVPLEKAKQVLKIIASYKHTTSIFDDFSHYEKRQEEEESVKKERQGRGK

[3] = target: T3, Lamin A/C (LMNA), transcript variant 2 (human, UniProt P02545-2 1-572)
T3 construct: source: bought: ProtoArray human protein Microarray v5.0 (Life Technologies), individually purified and arrayed
T3 sequence (looked up): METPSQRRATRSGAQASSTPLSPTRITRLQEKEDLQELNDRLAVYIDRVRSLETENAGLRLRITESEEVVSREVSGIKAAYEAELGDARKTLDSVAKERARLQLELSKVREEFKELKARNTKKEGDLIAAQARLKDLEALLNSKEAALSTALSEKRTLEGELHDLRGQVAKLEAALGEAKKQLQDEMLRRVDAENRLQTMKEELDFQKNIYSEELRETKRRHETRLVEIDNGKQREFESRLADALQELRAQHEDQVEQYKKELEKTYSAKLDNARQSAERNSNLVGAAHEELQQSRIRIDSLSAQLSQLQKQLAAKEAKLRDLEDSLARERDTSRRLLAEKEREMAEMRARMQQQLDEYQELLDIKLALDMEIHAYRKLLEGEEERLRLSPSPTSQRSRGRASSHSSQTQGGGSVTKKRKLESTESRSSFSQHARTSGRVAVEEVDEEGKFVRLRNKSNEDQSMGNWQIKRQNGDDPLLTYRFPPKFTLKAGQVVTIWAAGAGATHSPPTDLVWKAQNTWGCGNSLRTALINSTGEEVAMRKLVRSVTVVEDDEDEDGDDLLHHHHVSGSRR

[4] = target: RNA polymerase-associated protein RTF1 homolog (RTF1) (human, UniProt Q92541 1-710)

Measured: binding result

B1: recombinant human soluble endoglin (sEng; Glu26-Gly586) (domain or fragment, UniProt P17813 26-586, looked up)
chain: ETVHCDLQPVGPERGEVTYTTSQVSKGCVAQAPNAILEVHVLFLEFPTGPSQLELTLQASKQNGTWPREVLLVLSVNSSVFLHLQALGIPLHLAYNSSLVTFQEPPGVNTTELPSFPKTQILEWAAERGPITSAAELNDPQSILLRLGQAQGSLSFCMLEASQDMGRTLEWRPRTPALVRGCHLEGVAGHKEAHILRVLPGHSAGPRTVTVKVELSCAPGDLDAVLILQGPPYVSWLIDANHNMQIWTTGEYSFKIFPEKNIRGFKLPDTPQGLLGEARMLNASIVASFVELPLASIVSLHASSCGGRLQTSPAPIQTTPPKDTCSPELLMSLIQTKCADDAMTLVLKKELVAHLKCTITGLTFWDPSCEAEDRGDKFVLRSAYSSCGMQVSASMISNEAVVNILSSSSPQRKKVHCLNMDSLSFQLGLYLSPHFLQASNTIEPGQQSFVQVRVSPSVSEFLLQLDSCHLDLGPEGGTVELIQGRAAKGNCVSLLSPSPEGDPRFSFLLHFYTVPIPKTGTLSCTVALRPKTGSQDQEVHRTVFMRLNIISPDLSGCTSKG
notes: human endoglin (CD105), extracellular domain, Glu26-Gly586; The same bought protein was the probe of the array and the analyte of the BLI; also called recombinant human endoglin/CD105 protein; source: bought: R&D Systems (1097-EN), purified recombinant
binds: all assays above
